The target in this assay is T1, eukaryotic translation elongation factor 1A (eEF1A), native, full length (S. cerevisiae, UniProt P02994 1-458).
T1 sequence (looked up): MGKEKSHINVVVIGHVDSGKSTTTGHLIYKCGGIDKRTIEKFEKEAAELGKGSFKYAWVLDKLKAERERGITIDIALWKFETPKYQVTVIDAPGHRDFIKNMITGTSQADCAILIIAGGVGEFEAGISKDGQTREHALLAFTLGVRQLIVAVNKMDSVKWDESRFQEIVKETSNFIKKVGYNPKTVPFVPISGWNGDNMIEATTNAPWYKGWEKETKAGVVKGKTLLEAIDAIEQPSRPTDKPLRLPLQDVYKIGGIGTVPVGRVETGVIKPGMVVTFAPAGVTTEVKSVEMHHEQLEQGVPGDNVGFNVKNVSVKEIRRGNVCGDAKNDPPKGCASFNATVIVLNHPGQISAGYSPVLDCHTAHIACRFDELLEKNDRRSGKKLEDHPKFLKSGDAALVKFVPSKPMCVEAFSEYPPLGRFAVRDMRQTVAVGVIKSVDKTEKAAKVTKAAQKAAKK
The assay can be described thus: pull-down.

B1: recombinant Ypl225w-3xFLAG (natural protein, S. cerevisiae, UniProt Q08971 1-146, looked up)
chain: MSTFNAETADNLEDIEKQFAVVAVEQAETYWKLLTSVPGSKLRLTKFDDEIYENFMERFPEYKDVERVKKFTEEELKTKEAKERWRKFFTIFEKKIEDYNFGTLLRTDASAEYGQFTTCFVVRLQFYAFEIARNKHGLNDWIVGQK
In the case of B1, the binding result was “binds”.

Source of the values: article PMC11790920 (Nature Communications, 2025).
